Drawing on publication PMC3107500 (2011), this text covers Kd for three molecules.

B1: CCL18 (protein)
chain: GTNKELCCLVYTSWQIPQKFIVDYSETSPQCPKPGVILLTKRGRQICADPNKKWVQKYISDLKLNA
B2: CCL4 (protein)
chain: APMGSDPPTACCFSYTARKLPRNFVVDYYETSSLCSQPAVVFQTKRSKQVCADPSESWVQEYVYDLELN
B3: CCL3 (protein)
chain: SLAADTPTACCFSYTSRQIPQNFIADYFETSSQCSKPGVIFLTKRSRQVCADPSEEWVQKYVSDLELSA

The target of this assay is T1, PITPNM3 (Homo sapiens, UniProt Q9BZ71).
T1 chain: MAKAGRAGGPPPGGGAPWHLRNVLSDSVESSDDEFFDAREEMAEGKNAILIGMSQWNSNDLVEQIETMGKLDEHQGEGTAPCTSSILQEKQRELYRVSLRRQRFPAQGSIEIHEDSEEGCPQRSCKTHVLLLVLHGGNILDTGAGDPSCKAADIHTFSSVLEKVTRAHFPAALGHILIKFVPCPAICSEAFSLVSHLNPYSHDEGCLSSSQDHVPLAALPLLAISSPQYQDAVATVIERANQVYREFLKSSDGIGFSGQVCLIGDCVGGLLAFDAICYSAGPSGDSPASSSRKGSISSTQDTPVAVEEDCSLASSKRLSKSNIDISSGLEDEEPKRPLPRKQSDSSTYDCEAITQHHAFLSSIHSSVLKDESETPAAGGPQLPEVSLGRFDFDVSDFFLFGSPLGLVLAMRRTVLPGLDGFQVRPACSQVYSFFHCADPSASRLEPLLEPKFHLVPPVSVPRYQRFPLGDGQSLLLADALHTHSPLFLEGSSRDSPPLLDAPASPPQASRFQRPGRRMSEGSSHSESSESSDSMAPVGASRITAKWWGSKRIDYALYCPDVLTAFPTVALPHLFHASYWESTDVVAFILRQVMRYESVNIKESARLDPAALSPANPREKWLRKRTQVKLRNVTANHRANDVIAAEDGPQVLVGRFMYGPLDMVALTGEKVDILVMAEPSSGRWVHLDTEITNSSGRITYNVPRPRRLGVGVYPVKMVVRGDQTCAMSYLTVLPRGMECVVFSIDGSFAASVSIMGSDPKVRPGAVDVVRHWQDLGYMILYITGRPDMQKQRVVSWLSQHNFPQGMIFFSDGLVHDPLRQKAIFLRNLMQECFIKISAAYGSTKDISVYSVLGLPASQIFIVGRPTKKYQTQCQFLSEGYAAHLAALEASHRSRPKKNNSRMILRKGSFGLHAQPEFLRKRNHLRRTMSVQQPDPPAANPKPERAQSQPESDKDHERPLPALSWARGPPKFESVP
Kind of assay: 125I-CCL18 radioligand competition binding on PITPNM3-transfected HEK293 cells.
B1 yielded a Kd of 0.00517 µM.

B2 gave a Kd of 0.833 µM.

In turn, B3 yielded a Kd of 0.277 µM.
